Data on two molecules can be found in patent US20180214548A1 (SHANGHAI YUNYI HEALTHCARE AND TECHNOLOGY, published 2018).

Assay [1] deals with T1, human PD-1^ECD-hFc protein (Immunogen A) (human, UniProt Q15116 25-167).
T1 construct: Biotinylated for the Octet assay; also called PD-1-hFc; hPD-1^ECD-hFc; not shown: human IgG Fc fragment (hFc)
Put plainly: ELISA, coated human PD-1ECD-hFc; antibody 0.00001 nM. How it is done:
(§1) 100 uL of the diluted recombinant proteins were added to each well of 96-well plate. The plates were sealed with plastic film and incubated at 4° C. overnight. The plates were washed twice with wash buffer (PBS+0.01% (v/v) Tween20), and incubated with blocking buffer (PBS+0.01% (v/v) Tween20+1% (w/w) BSA) at room temperature for 2 hours. The blocking buffer was aspirated away, and 100 uL of purified anti-PD-1 antibodies were added to each well and incubated for 2 hours at 37° C. The plates were washed three times with wash buffer (PBS+0.01% (v/v) Tween20). HRP-conjugated secondary antibody (Sigma) was added to each well and incubated for 2 hours at 37° C. After the plates were washed three times with wash buffer, 100 uL TMB substrate was added to each well and incubated for 30 minutes at room temperature. 100 uL stop solution (0.1N HCl) was added to each well to stop the reaction. The absorbance at 450 nm was measured with an ELISA plate reader (384plus SpectraMax, Molecular Devices).
(ELISA stands for enzyme-linked immunosorbent assay.)

The target of assay [2] is T1, human PD-1^ECD-hFc protein (Immunogen A). Put plainly: ELISA, coated human PD-1ECD-hFc; antibody 0.0001 nM. How it is done:
as §1

Assay [3] shares this target. Put plainly: ELISA, coated human PD-1ECD-hFc; antibody 0.001 nM. The method, then: as §1
Assay [4] addresses T2, full length human PD-1 on cells (human, UniProt Q15116 25-288).
T2 construct: Also used here for PD-1 on human T cells/PBMC; also called CHO-K1-hPD-1; hPD-1
Put plainly: cell-based receptor-ligand blocking, flow cytometry: CHO-K1-hPD-1 cells, blocked ligand biotinylated PD-L2-Fc, streptavidin-Alexa 488. The method, then: CHO-K1-hPD-1 cells were cultured and expanded in T-75 culture flasks to 60-80% confluence. The culture media was aspirated, and the cells were washed twice with PBS. The cells were treated with TrypLE™ Express (Invitrogen) and collected. Trypsin was neutralized by the addition of 8 mL culture medium, and cell counts were determined. […] The cells were blocked for 15 minutes at 37° C. Meanwhile, the wells of 96-well round-bottom plates were blocked with 200 uL blocking buffer for 1 hour at 37° C. The blocking buffer was discarded, and 200 uL cells were dispensed to each well of the 96-well plates (2×10^5 cells/well). The plates were centrifuged at 500 g for 5 minutes, and the supernatants were discarded. The cells were resuspended in 100 uL antibody prepared in blocking buffer. […] The plates were incubated at 4° C. for 90 minutes and washed twice with 200 uL blocking buffer. […] The plates were washed three times with blocking buffer and resuspended in 200 uL blocking buffer. The mean fluorescence intensity (MFI) was determined using FACS Calibur (BD).
In general terms: A flow cytometer gives signals particle by particle.

T1 sequence (Q15116 25-167): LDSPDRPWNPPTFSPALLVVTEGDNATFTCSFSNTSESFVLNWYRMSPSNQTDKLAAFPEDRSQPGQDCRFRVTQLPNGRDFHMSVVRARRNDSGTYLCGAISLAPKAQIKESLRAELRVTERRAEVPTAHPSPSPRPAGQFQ
T2 sequence (Q15116 25-288 limits assumed): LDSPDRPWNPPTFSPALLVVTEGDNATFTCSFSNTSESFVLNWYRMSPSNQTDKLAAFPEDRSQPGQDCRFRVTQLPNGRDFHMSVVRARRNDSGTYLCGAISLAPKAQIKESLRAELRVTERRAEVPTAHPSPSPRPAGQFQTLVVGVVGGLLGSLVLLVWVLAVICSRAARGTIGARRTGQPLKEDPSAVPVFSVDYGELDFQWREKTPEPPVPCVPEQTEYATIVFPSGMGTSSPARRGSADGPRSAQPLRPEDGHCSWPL

B1: chimeric anti-PD-1 antibody 21G8F11 (antibody, V domains shown)
VH: EVQLLESGGGLAQPGGSLRLSCAASGFSFNTYLMHWVRQAPGKGLEWVSAISGGGGNTYYADSVKGRFTISRDNSKNTLYLQMNSLRAEDTAVYYCAKENRIPVAPFDYWGQGTLVTVSS
VL: DIQMTQSPSTLSASVGDRVTITCRASQSISTWLAWYQQKPGKAPKLLIYKASSLESGVPSRFSGSGSGTEFTLTISSLQPDDLATYYCQQYNSFSWTFGQGTKVEIK
notes: Purified from hybridoma of Harbour H2L2 mice: human variable regions, rat constant regions
As to B1, the OD450 nm was 0.405 in assay [1], 0.433 in assay [2] and 0.468 in assay [3].

B2: chimeric anti-PD-1 antibody 76G5B3 (antibody, V domains shown)
VH: QVQLVESGGGVVQPGRSLRLSCAASGFTFSDYGFHWVRQAPGKGLEWVAVIWYDGSNEYYTDSVKGRFTISRDNSKNTLYLQMNSLRAEDTAMYFCVVNPFDYWGQGTLVTVSS
VL: DIQMTQSPSSLSAFVGDRVTITCRASQGINHYLAWYQQKPGKAPNLLILAASTLLSGVPSRFGGRGSGTDFTLIISSLQPEDVATYYCQKYDSAPYTFGQGTKLEIK
notes: as for B1
Regarding B2, in assay [4], the “IC50 (read off the curve)” value was around 2 nM.
